Source: IntAct's records for PubMed 31515488

B1: TNF receptor-associated factor 2 (Homo sapiens), Q12933 (parent)
chain: MAAASVTPPGSLELLQPGFSKTLLGTKLEAKYLCSACRNVLRRPFQAQCGHRYCSFCLASILSSGPQNCAACVHEGIYEEGISILESSSAFPDNAARREVESLPAVCPSDGCTWKGTLKEYESCHEGRCPLMLTECPACKGLVRLGEKERHLEHECPERSLSCRHCRAPCCGADVKAHHEVCPKFPLTCDGCGKKKIPREKFQDHVKTCGKCRVPCRFHAIGCLETVEGEKQQEHEVQWLREHLAMLLSSVLEAKPLLGDQSHAGSELLQRCESLEKKTATFENIVCVLNREVERVAMTAEACSRQHRLDQDKIEALSSKVQQLERSIGLKDLAMADLEQKVLEMEASTYDGVFIWKISDFARKRQEAVAGRIPAIFSPAFYTSRYGYKMCLRIYLNGDGTGRGTHLSLFFVVMKGPNDALLRWPFNQKVTLMLLDQNNREHVIDAFRPDVTSSSFQRPVNDMNIASGCPLFCPVSKMEAKNSYVRDDAIFIKAIVDLTGL

Variants of: B1
Settings: with traf1_human TRAF1, Q13077
traf1_human TRAF1, Q13077, sequence (Q13077 whole entry): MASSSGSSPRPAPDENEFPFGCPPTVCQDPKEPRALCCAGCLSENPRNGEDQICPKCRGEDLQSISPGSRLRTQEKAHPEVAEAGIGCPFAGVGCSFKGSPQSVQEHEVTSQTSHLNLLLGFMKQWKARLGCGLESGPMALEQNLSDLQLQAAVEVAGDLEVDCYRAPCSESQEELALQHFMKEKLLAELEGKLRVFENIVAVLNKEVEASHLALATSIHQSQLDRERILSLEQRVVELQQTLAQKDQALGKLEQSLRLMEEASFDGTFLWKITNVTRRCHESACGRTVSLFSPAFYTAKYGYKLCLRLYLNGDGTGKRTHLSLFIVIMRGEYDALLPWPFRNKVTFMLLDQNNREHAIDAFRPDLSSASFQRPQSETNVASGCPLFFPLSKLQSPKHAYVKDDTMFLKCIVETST

| effect of a mutation on the interaction | Variant |
| --- | --- |
| with no effect | MAAASVTPPGSLELLQPGFSKTLLGTKLEAKYLCSACRNVLRRPFQAQCGHRYCSFCLASILSSGPQNCAACVHEGIYEEGISILESSSAFPDNAARREVESLPAVCPSDGCTWKGTLKEYESCHEGRCPLMLTECPACKGLVRLGEKERHLEHECPERSLSCRHCRAPCCGADVKAHHEVCPKFPLTCDGCGKKKIPREKFQDHVKTCGKCRVPCRFHAIGCLETVEGEKQQEHEVQWLREHLAMLLSSVLEAKPLLGDQSHAGSELLQRCESLEKKTATFENIVCVLNREVERVAMTAEACSRQHRLDQDKIEALSSKVQQLERSIGLKDLAMADLEQKVLEMEASTYDGVFIWKISDFARKRQEAVAGRIPAIFSPAFYTSRYGYKMCLRIYLNGDGTGRGTHLSLFFVVMKGPNDALLRWPFNQKVTLMLLDQNNREHVIDAFRPDVTSSSFQRPVNDMNIASGCPLFCPISKMEAKNSYVRDDAIFIKAIVDLTGL [V475I] |
| with no effect | MAAASVTPPGSLELLQPGFSKTLLGTKLEAKYLCSACRNVLRRPFQAQCGHRYCSFCLASILSSGPQNCAACVHEGIYEEGISILESSSAFPDNAARREVESLPAVCPSDGCTWKGTLKEYESCHEGRCPLMLTECPACKGLVRLGEKERHLEHECPERSLSCRHCRAPCCGADVKAHHEVCPKFPLTCDGCGKKKIPREKFQDHIKTCGKCRVPCRFHAIGCLETVEGEKQQEHEVQWLREHLAMLLSSVLEAKPLLGDQSHAGSELLQRCESLEKKTATFENIVCVLNREVERVAMTAEACSRQHRLDQDKIEALSSKVQQLERSIGLKDLAMADLEQKVLEMEASTYDGVFIWKISDFARKRQEAVAGRIPAIFSPAFYTSRYGYKMCLRIYLNGDGTGRGTHLSLFFVVMKGPNDALLRWPFNQKVTLMLLDQNNREHVIDAFRPDVTSSSFQRPVNDMNIASGCPLFCPVSKMEAKNSYVRDDAIFIKAIVDLTGL [V206I] |
| with no effect | MAAASVTPPGSLELLQPGFSKTLLGTKLEAKYLCSACRNVLRRPFQAQCGHRYCSFCLASILSSGPQNCAACVHEGIYEEGISILESSSAFPDNAARREVESLPAVCPSDGCTWKGTLKEYESCHEGRCPLMLTECPACKGLVRLGEKERHLEHECPERSLSCRHCRAPCCGADVKAHHEVCPKFPLTCDGCGKKKIPREKFQDHVKTCGKCRVPCRFHAIGCLETVEGEKQQEHEVQWLREHLAMLLSSVLEAKPLLGDQSHAGSELLQRCESLEKKTATFENIVCVLNREVERVAMTAEACSRQHRLDQDKIEALSSKVQQLERSIGLKDLAMADLEQKVLEMEASTYDGVFIWKISDFARKRQEAVAGRIPAIFSPAFYTSRYGYKMCLRIYLNGDGTGRGTHLSLFFVVMKGPNDALLRWPFNQKVTLMLLDQNNREHVIDAFRPDVTSSSFQRPVNDMNIASGCPLFCPVSKMEAKNSYVRDNAIFIKAIVDLTGL [D488N] |
| with no effect | MAAASVTPPGSLELLQPGFSKTLLGTKLEAKYLCSACRNVLRRPFQAQCGHRYCSFCLASILSSGPQNCAACVHEGIYEEGISILESSSAFPDNAARREVESLPAVCPSDGCTWKGTLKEYESCHEGRCPLMLTECPACKGLVRLGEKERHLEHECPERSLSCRHCRAPCCGADVKAHHEVCPKFPLTCDGCGKKKIPREKFQDHVKTCGKCRVPCRFHAIGCLETVEGEKQQEHEVQWLREHLAMLLSSVLEAKPLLGDQSHAGSELLQRCESLQKKTATFENIVCVLNREVERVAMTAEACSRQHRLDQDKIEALSSKVQQLERSIGLKDLAMADLEQKVLEMEASTYDGVFIWKISDFARKRQEAVAGRIPAIFSPAFYTSRYGYKMCLRIYLNGDGTGRGTHLSLFFVVMKGPNDALLRWPFNQKVTLMLLDQNNREHVIDAFRPDVTSSSFQRPVNDMNIASGCPLFCPVSKMEAKNSYVRDDAIFIKAIVDLTGL [E276Q] |
| with no effect | MAAASVTPPGSLELLQPGFSKTLLGTKLEAKYLCSACRNVLRRPFQAQCGHRYCSFCLASILSSGPQNCAACVHEGIYEEGISILESSSAFPDNAARREVESLPAVCPSDGCTWKGTLKEYESCHEGRCPLMLTECPACKGLVRLGEKERHLEHECPERSLSCRHCRAPCCGADVKAHHEVCPKFPLTCDGCGKKKIPREKFQDHVKTCGKCRVPCRFHAIGCLETVEGEKQQEHEVQWLREHLAMLLSSVLEAKPLLGDQSHAGSELLQRCESLEKTTATFENIVCVLNREVERVAMTAEACSRQHRLDQDKIEALSSKVQQLERSIGLKDLAMADLEQKVLEMEASTYDGVFIWKISDFARKRQEAVAGRIPAIFSPAFYTSRYGYKMCLRIYLNGDGTGRGTHLSLFFVVMKGPNDALLRWPFNQKVTLMLLDQNNREHVIDAFRPDVTSSSFQRPVNDMNIASGCPLFCPVSKMEAKNSYVRDDAIFIKAIVDLTGL [K278T] |
| with no effect | MAAASVTPPGSLELLQPGFSKTLLGTKLEAKYLCSACRNVLRRPFQAQCGHRYCSFCLASILSSGPQNCAACVHEGIYEEGISILESSSAFPDNAARREVESLPAVCPSDGCTWKGTLKEYESCHEGRCPLMLTECPACKGLVRLGEKERHLEHECPERSLSCRHCRAPCCGADVKAHHEVCPKFPLTCDGCGKKKIPREKFQDHVKTCGKCRVPCRFHAIGCLETVEGEKQQEHEVQWLREHLAMLLSSVLEAKPLLGDQSHAGSELLQRCESLEKKTATFENIVCVLNREVERVAMTAEACSRQHRLDQDKIEALSSKVQQLERSIGLKDLAMADLEQKVLEMEASTYDGVFIWKISDFARKRQEAVAGRIPAIFSPAFYTSRYGYKMCLRIYLNGDGTGRGTHLSLFFVVMKGPNDALLRWPFNQKVTLMLLDQNNREHVIDAFRPDVTSSSFQRPVNNMNIASGCPLFCPVSKMEAKNSYVRDDAIFIKAIVDLTGL [D462N] |
| with no effect | MAAASVTPPGSLELLQPGFSKTLLGTKLEAKYLCSACRNVLRRPFQAQCGHRYCSFCLASILSSGPQNCAACVHEGIYEEGISILESSSAFPDNAARREVESLPAVCPSDGCTWKGTLKEYESCHEGRCPLMLAECPACKGLVRLGEKERHLEHECPERSLSCRHCRAPCCGADVKAHHEVCPKFPLTCDGCGKKKIPREKFQDHVKTCGKCRVPCRFHAIGCLETVEGEKQQEHEVQWLREHLAMLLSSVLEAKPLLGDQSHAGSELLQRCESLEKKTATFENIVCVLNREVERVAMTAEACSRQHRLDQDKIEALSSKVQQLERSIGLKDLAMADLEQKVLEMEASTYDGVFIWKISDFARKRQEAVAGRIPAIFSPAFYTSRYGYKMCLRIYLNGDGTGRGTHLSLFFVVMKGPNDALLRWPFNQKVTLMLLDQNNREHVIDAFRPDVTSSSFQRPVNDMNIASGCPLFCPVSKMEAKNSYVRDDAIFIKAIVDLTGL [T134A] |
| with no effect | MAAASVTPPGSLELLQPGFSKTLLGTKLEAKYLCSACRNVLRRPFQAQCGHRYCSFCLASILSSGPQNCAACVHEGIYEEGISILESSSAFPDNAARREVESLPAVCPSDGCTWKGTLKEYESCHEGRCPLMLTECPACKGLVRLGEKERHLEHECPERSLSCRHCRAPCCGADVKAHHEVCPKFPLTCDGCGKKKIPREKFQDHVKTCGKCRVPCRFHAIGCLETVEGEKQQEHEVQWLREHLAMLLSSVLEAKPLLGDQSHTGSELLQRCESLEKKTATFENIVCVLNREVERVAMTAEACSRQHRLDQDKIEALSSKVQQLERSIGLKDLAMADLEQKVLEMEASTYDGVFIWKISDFARKRQEAVAGRIPAIFSPAFYTSRYGYKMCLRIYLNGDGTGRGTHLSLFFVVMKGPNDALLRWPFNQKVTLMLLDQNNREHVIDAFRPDVTSSSFQRPVNDMNIASGCPLFCPVSKMEAKNSYVRDDAIFIKAIVDLTGL [A264T] |
